Source: patent US9598677B2, “Use of human biliverdin reductase and fragments thereof for the treatment of protein kinase C-delta and ERK related conditions” (University of Rochester, priority 2009, dated 2017)
“Also recorded” adds a separate entry of the source. Ends that are not written are not given here.

Legend:
Elk1 = experiment: Elk1-luciferase reporter assay; format: cell-based, human; settings: myristoylated peptide 2 h prior to PMA, control PMA-treated cells, FIG. 10C
Procedure: Elk1-luciferase reporter assay: Cells were co-transfected with the reporters pFA2-Elk1, pFR-Luc (Stratagene, La Jolla, Calif.) and pCMV-β-galactosidase, and other plasmids, as necessary. Cells were lysed; promoter activity was determined by luciferase assay and normalized on β-galactosidase.

recombinant human PKC-δ [1] = settings: Nishikawa et al. 1997; read-out: reported Km for the commercial substrate; cited from earlier work
PKC-δ = PKC-δ (Homo sapiens, UniProt Q05655); experiment: GST-hBVR pull-down of PKC-δ from cell lysate; format: binding; parameters: The human PKC-δ open reading frame was also cloned in the same vectors; expressed in transfected cells; host or cells: HEK 293A (PKC-δ); E. coli, pGEX-4T2 (GST-hBVR); settings: 30 min and 120 min incubation, FIG. 2A
Procedure: Cell Culture, infection, transfection, GST pull-down and co-immunoprecipitation: HEK 293A cells were grown in Dulbecco's Modified Eagle Medium (Invitrogen) containing 10% fetal bovine serum and 1% penicillin-G/streptomycin for 24 h or until the cells reached 70% confluency. Depending on the experiment, cells were subsequently transfected with up to 5 μg of pcDNA3-hBVR or pcDNA3-PKC-δ plasmid using Transfectin Lipid Reagent (Bio-Rad, Hercules, Calif.) in 10 cm plates. Western blotting determined overexpression of hBVR or PKC-δ. To prepare si-hBVR or sc-hBVR (containing a randomized variant of the sihBVR sequence), pSuper-Retro-si-hBVR (Miralem et al., “Small Interference RNA-Mediated Gene Silencing of Human Biliverdin Reductase, But Not That of Heme Oxygenase-1, Attenuates Arsenite-Mediated Induction of the Oxygenase and Increases Apoptosis in 293A Kidney Cells,” J. Biol. Chem. 280:17084-17092 (2005), which is hereby incorporated by reference in its entirety) or sc-hBVR, respectively, were introduced into 293A cells for packaging, and the si-hBVR or sc-hBVR retrovirus were titrated using NIH3T3 cells. […] Proteins were separated by SDS-page and detected by immunoblotting using anti-PKC-δ antibodies.

recombinant human PKC-δ [2] = experiment: PKC-δ kinase assay in vitro (p81 filter / autoradiography); format: biochemical
Procedure: Measurement of PKC-δ activity: In vitro kinase activity assays were performed with active recombinant human PKC-δ kinase (as a GST fusion protein). PKC-δ assay in vitro was performed using 5 ng purified enzyme in a 50 μl assay containing 50 mM HEPES pH 7.4, 10 mM MgCl2, 0.2 mM DTT, sonicated lipid activators (0.5 μg phosphatidylserine and 0.05 μg diacylglycerol) or lipid activators plus PMA (as indicated in appropriate experiments) and PKC-δ substrates. The reaction was started by the addition of 50 μM ATP labeled with 5 μCi [γ-^32P]-ATP. Incubation was performed for 15 min at 30° C., unless otherwise stated. The reaction was terminated on ice, either by the addition of Laemmli buffer followed by SDS-PAGE, transferred to PVDF membrane, and autoradiography, or by the addition of 1 volume 10% phosphoric acid for p81 transfer as described below. For autophosphorylation of PKC-δ 20 μM ATP was used to start the 40-min reaction.
When hBVR or its mutants were tested for their effect on PKC-δ activity, they were pre-incubated for 5 min at room temperature with the PKC prior to substrate addition. The hBVR-derived peptides were used at concentrations indicated in appropriate figures.
When hBVR or its mutants were assayed as the sole substrates for PKC, the incubation conditions were as described above and the incubation was for 40 min at 30° C. unless specified otherwise. The reaction was terminated by the addition of Laemmli buffer, and the reaction products were detected by SDS-PAGE, transfer to PVDF membrane, and autoradiography.
Measurement of PKC-δ activity: PKC-δ assay in vitro was performed using 0.1 ng/μl purified recombinant human PKC-δ kinase with reaction conditions specified by the manufacturer. Effector molecules such as hBVR or peptides were added 5 min prior to substrate. The reaction was started by the addition of [γ-^32P]-ATP (Lerner-Marmarosh et al., “Human Biliverdin Reductase: A Member of the Insulin Receptor Substrate Family with Serine/Threonine/Tyrosine Kinase Activity,” Proc. Natl. Acad. Sci. U.S.A. 102(20):7109-7114 (2005), which is hereby incorporated by reference in its entirety). Reaction products were detected either by gel electrophoresis and autoradiography or by the p81 filter assay. PKC-δ activity on agarose beads was also measured. Cell lysates were immunoprecipitated with anti-PKC-δ antibody followed by protein A/G agarose. The immunoprecipitates were used in kinase reactions containing 50 μM PKC-δ specific peptide substrate as above; incorporation of ^32P was measured by p81 method.

PKC-δ, sequence (Q05655 whole entry): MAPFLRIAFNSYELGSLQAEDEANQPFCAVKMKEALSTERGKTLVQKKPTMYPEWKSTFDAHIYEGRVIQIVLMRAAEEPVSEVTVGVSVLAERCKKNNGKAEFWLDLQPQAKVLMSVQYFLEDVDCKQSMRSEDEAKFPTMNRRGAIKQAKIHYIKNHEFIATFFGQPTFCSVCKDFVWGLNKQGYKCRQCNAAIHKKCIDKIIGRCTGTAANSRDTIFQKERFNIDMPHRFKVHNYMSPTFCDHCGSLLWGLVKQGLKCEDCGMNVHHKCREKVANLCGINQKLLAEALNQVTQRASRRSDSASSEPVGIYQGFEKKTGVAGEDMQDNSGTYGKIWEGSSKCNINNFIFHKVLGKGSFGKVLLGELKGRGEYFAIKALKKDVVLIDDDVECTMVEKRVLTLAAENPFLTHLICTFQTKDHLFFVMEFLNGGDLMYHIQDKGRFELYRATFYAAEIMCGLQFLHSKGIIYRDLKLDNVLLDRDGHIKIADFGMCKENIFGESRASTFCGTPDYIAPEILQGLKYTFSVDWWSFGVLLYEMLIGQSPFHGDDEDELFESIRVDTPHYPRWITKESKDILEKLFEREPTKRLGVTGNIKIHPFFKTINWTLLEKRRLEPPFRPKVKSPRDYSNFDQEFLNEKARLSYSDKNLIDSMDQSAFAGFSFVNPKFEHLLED

SAFAGFSFVNPKFEHLLED (also: myristoylation, place not given here) [myristoylated PKC-δ bulky Ring motif C-terminal peptide]
inhibition of Elk1 dependent luciferase expression (Elk1): 90%

ARRKRKGSFFGG (PKC-delta substrate) [commercial peptide identified by Nishikawa as the optimal substrate for PKC-δ]
Km (recombinant human PKC-δ [1]): 0.98 µM

B1: hBVR: purified E. coli expressed human biliverdin reductase (protein)
chain: MNAEPERKFGVVVVGVGRAGSVRMRDLRNPHPSSAFLNLIGFVSRRELGSIDGVQQISLEDALSSQEVEVAYICSESSSHEDYIRQFLNAGKHVLVEYPMTLSLAAAQELWELAEQKGKVLHEEHVELLMEEFAFLKKEVVGKDLLKGSLLFTSDPLEEDRFGFPAFSGISRLTWLVSLFGELSLVSATLEERKEDQYMKMTVCLETEKKSPLSWIEEKGPGLKRNRYLSFHFKSGSLENVPNVGVNKNIFLKDQNIFVQKLLGQFSEKELAAEKKRILHCLGLAEEIQKYCCSRK
modifications: GST tag; Homo sapien
notes: purified E. coli expressed human biliverdin reductase
binding of PKC-δ from cell lysates (PKC-δ): selectively bound PKC-δ
PKC-δ kinase activity toward MBP in presence of hBVR (recombinant human PKC-δ [2]; 2 μg GST-hBVR, 12.5 μM MBP, FIG. 1B): increased kinase activity
PKC-δ autophosphorylation in presence of hBVR (recombinant human PKC-δ [2]; FIGS. 1A, 1C, 7C): enhanced; also recorded: increased
